Experimental data reported in the DeepSol protein solubility set.

Test: soluble on expression in E. coli; label from the status in PepcDB or PDB records

Row | Sequence | soluble on expression in E. coli
1 | MSLAYGSLLFKRFSITIKYRKLIVEHIEKGDLKLTEEFKNILRDLMVTTFKKADSILIEKCKAEEKHYSSCTGVVLLFIKDILVNAHIGDSRSVACTYSNSINLAQFLTIDHKPDQPLEYRRIVENGGSVEYLQNHNNKPFLRGGDFTRRRARGETPMQLQYSRAFGGKDLKPYGLSCVPDISIISLNQNNRLFIIATDGIWDLLSAQQSCDLSFYSQELGIQPARYLVNAVLEETRNRNTNCDNLTAICIMHIKNEGHHHHHH | soluble
2 | MSLAYTKKKYTPKTKEQIKEETKEIMDKVLTDITKYYRSPEDMLELANFMAKFSNYSPKNMQLIRSQFENAYACANFKAFKDAGFHVNKGETAMKVFHPYVKEYVRDPRTKLAIPLGKLTEEQKKQVKNGELKVEKQTNYYLKATAFDISQTNAKPEDLPKIFPNRQFNFEINDEGHHHHHH | not soluble
3 | MSLCEDMLLCNYRKCRIKLSGYAWVTACSHIFCDQHGSGEFSRSPAICPACNSTLSGKLDIVRTELSPSEEYKAMVLAGLRPEIVLDISSRALAFWTYQVHQERLYQEYNFSKAEGHLKQMEKIYTQQIQSKDVELTSMKGEVTSMKKVLEEYKKKFSDISEKLMERNRQYQKLQGLYDSLRLRNITIANHEGTLEPSMIAQSGVLGFPLGNNSKFPLDNTPVRNRGDGDGDFQFRPFFAGSPTAPEPSNSFFSFVSPSRELEQQQVSSRAFKVKRI | soluble
4 | MSLCMEAVMNIGIYIYDEAEVLDFSGPFEVFSTAKRLGAGSWNVFLVSETLEPVKARGGFTVLPDYSFQNYPQIDLLIVVGGVHRNEMNKSNVLHWVASVDKHAKHIASVCTGAFILANAGLLKGLAVTTHWEDIPELKQRFPDLVVVEDKRWITASKYTTSGGISAGIDMSLFLVSKFHSQSHAELVAHQMEYNWQKCTEGGSHHHHHH | soluble
5 | MSLCPLTPVGKYLLLPLWLGVRPFFRALFRIEVIGKENIPEGACIVASNHRSHLDPPVLNAVFPEPLVFLAKEELFKPPFGGILKHMRAIPLRRGSEDISTLEECVSLLKLGCKIGIFPEGTRANPGEFKRAKPGVGFLAINSGFPVLPVYIDGTDRAFPRGKKFPKPFVKVSVVIGKPLEFKGLEPSVKNYKRVANEIMEEIKKLAQSLHRKEGHHHHHH | soluble
6 | MSLDGVLISSREAIAAAWSRVAGEQGVALGPDCLRDHVHGRPGGYTLDYLFGHLPMERRRILKQRVDALEEGADCPLLPGVAAVIRQLRWLDVPLALVTSSWPARIDHVLRQHDLQAAFRTLVSRDDVVHGKPAPDGYRLAAARLGVAPSRCLVFEDSLSGVQAACAAGATCVAIGEESGLLAAGARWSVRDFRELRIVREDDRLYCQHRHPATTGSERSVGVPEGHHHHHH | not soluble
7 | MSLDHSRDQARRNIAVHYDLSNDLFAAFLDETMTYSCAMFTDLLAQPTPAWTELAAAQRRKIDRLLDVAGVQQGSHVLEIGTGWGELCIRAAARGAHIRSVTLSVEQQRLARQRVAAAGFGHRVEIDLCDYRDVDGQYDSVVSVEMIEAVGYRSWPRYFAALEQLVRPGGPVAIQAITMPHHRMLATRHTQTWIQKYIFPGGLLPSTQAIIDITGQHTGLRIVDAASLRPHYAETLRLWRERFMQRRDGLAHLGFDEVFARMWELYLAYSEAGFRSGYLDVYQWTLIREGPEGHHHHHH | not soluble
8 | MSLDIHDILVIDDSRLQRQHAMDLCRQLGIASVREAPDGERGLTLMRVQMPDLLLLDLEMPKQDGVQVMQEMARAGLSSPVIITSGKDYLLISTVELMGRELGLPVLGCLQKPLQLPALLDLMHRVWTPAERPDDAPLAADEVRVALEKGQIIPYYQPKVNLADGRVKGAEMLARWQHPDLGLIPPSRFIPVIEDNGWATELTMLMLRQGLTQWQEWARHGLRLPLSVNLSALSLRGDELVDEIECYVRGSHVPARFIIFEVTETAIVDNLAQAIGCAVRLRLAGLGLSIDDFGTGFATLQQLTRFPFTELKIDQSLVTGISDKPHLQAVFNSIIEMARRLQLATVAEGIETAEDYQLMAERGCQLGQGYYFARPLPAAAFLEWTRQPPVLPTAGEGHHHHHH | not soluble
9 | MSLDKIFVEEAVSELHTLQDMIRWTVSRFNAANLFYGQGTDNAWDEAVQLILPTLYLPIDVPPHVLSSRLTSSERLRVVERVIKRINDRTPVAYLTNKAWFCGLEFFVDSRVLVPRSPIGELIQNRFEPWLTEEPTRIMDLCTGSGCIAIACANAFPEAEVDAIDISVDALNVAEQNIQDHGLEQQVFPIRSDLFRDLPQEQYDLIVTNPPYVDQEDMDSLPSEFRHEPELGLAAGSDGLKLARRILANAPLYLKENGILVCEVGNSMVHMMEQYPHIPFTWLEFENGGHGVFLLTREQLIDCAADFALYKDEGHHHHHH | soluble
10 | MSLDKNLQTVIHDEHCGTLDFSLGDSRYSGELESGESYTVNFSVNPPEGSSIKVARAYIYWTWSKQGLDGIYPEFKSSLVHSGSSVLLLEEKRYTDTKGFVSRYDFFSGTDVYDLSEDISEAGNYSISLVNAGGDEKTFCVQGAGLLLVYENPDLPQTEYWINEGCDVLYAEYGIDPDMATTTTFFEGDICPENIENARLITVSPSGGYSSGTEARNRLFFNEKTGSIPVIGDIIKLLFAGGKSWKNVYQTNETVQIALDERSVGNYLDSNGNFASIQDNGDYLMATNAILLLEFKEPENPGKRYGEGHHHHHH | not soluble
11 | MSLDKPVIQIHTDNSSLIFRVADNGRLYQSYLGKKLNHEADISHLPQGTEAYITHGMEDYFEPAIHILHNDGNPSLLLKYVSHETKAVSQGVNETIITLGDDKYPVTVKLHYVTYPAEDIIKTYTEISHKEKKPVVLHQYASSMLHLNRAKYYLTEFSGDWAHEANISDQPLEFGKKVLDTKLGARANMFTPPFFQLSLDQLATENCGEVLVGTLGWTGNFRFTFEVDNKNELRIISGINPYASEYYLPAGVVFRTPDFYFTYSANGKGKASRNFHDWARRYQLKDGDETRMTLLNNWEATYFDFNEEKLIGLIGDAAGLGVDMFLLDDGWFANKYPRSSDHQGLGDWDETADKLPNGIGRLVEEATKKGIKFGLWIEPEMVNPKSELYEKHKDWVIHLPNRDEYYFRNQLVLDLSNPKVQDFVFGVVDDLMTKYPGIAFFKWDCNSPITNIYSSYLKEKQSHLYIDYVRGLYNVLERIKTKYPDLPMMLCSGGSGRIDYETLRYFTEFWPSDNTDPIERLFIQWGYSQLFPAKTLCAHVTTWNHDASIKFRTDVAMMGKLGFDIKLSDLNDNEKKFCRDAVTNYNHLKPVVLEGDMYRLVSPYSGNHTSTQYVGKDKKGAVVFAFDIYSRYGEKLLPVRLQGLDAGRQYRVKEINLMPGTNSSLQGNGELFSGEYLMTVGLNIFTGQRLNSRVIEVVAEEGHHPITTDPNSSSVDKLAAALEHHHHHH | soluble
12 | MSLDKPVLLLGEICVDFTLSTPMSSAKMRLGGVVHAARGLWALNVPYSVAAICPDYLVSEAEAYLYAHGCTNFIQVGTVLGAPNVFLIGDAREVGHQGYENILREAKKVLTFDLDEKLRGFKNIVVYPGTFDFEGIVKNLDSDAKITVDIAYDVNDADELSRVYGASHALAISTSSELFSSLALENLGPLLKACKTRSAKHLLLKENRGGSRLFDLESGESWEIPATLARTVNSVGVGDVYTAVFAALIDHGALTAALRGMQAATRYAQTTFPDDFKRDVQRDEGHHHHHH | not soluble
13 | MSLDLHNDLKSYLSELNTYSHVDKNEIYHSQRAGYMTGGGISIRNGASHTALAQVSLPKFDAGCGGIDIFTGGISFISHDQLIAALKNIASSAQGYAFMLGIETVSPLIASTMKQMETWANAINSLGINSCEVATGLVGSVWPARTAAKQQICRSAKNGGFASSFINARHQCADEGDYAKTMQSMAKDPLYDGMLLEEYNLTWKAVQKHPFLAKKENRKMAEEIMSLTGTLIIRRDKSLVVEPWPSRIYDDSFLPILLEGGTTRVYQCTGGNAKQNCLALEMKELTIPAEQAWKGRIKQALATIQQKILADTPLASEEIDLLSKSRLPLFKIVNVLTAYKREVSPISLYEVAEIVGNEMLIQYLREIIGTVRLAAIQLERGQMYDFDSQKFIEELERVEKVVSRYEERHYQRLEAENQLMLKIETLEQKIASQIILFEGHHHHHH | not soluble
14 | MSLDLNDTYSGKREPFSGDHSADGFEVTSRSEMSSGSEISPVSEMPSSSEPSSGADYDYSEEYDNEPQIPGYIVDDSVRVEQVVKPPQNKTESENTSDKPKRKKKGGKNGKNRRNRKKKNPCNAEFQNFCIHGECKYIEHLEAVTCKCQQEYFGERCGEKSMKTHSMIDSSEGHHHHHH | soluble
15 | MSLDNIIIIQTKNPNYYAIKYAYKNQYEQFYEEELNIRKKLNYPPFNKIIRIIFRSKNEESAKQKCWEFFEKSKEFLQEEIEHLGPSEAIMKKISKNYRYNIIYLSKSYSLLEKLVNKTKEKVKMTSTVYIEIDYYPISEGHHHHHH | not soluble
16 | MSLDRKLKGSVEEKTLEYLRKRPEIYMALSTGIVNLNGLAALISKENDGMNQLSIRSVLQKMIRDGLVSDYRKSTDDLLKRSKVTLQDKVSVITSRRKIDIDFLSVTFLTDSVVYIVDETRAKNIPKDALIERNVSLIHIFSPPEIVTTPGFAMNVVQRIYAANVNILQLISCSNETMIVVNRDDAISAYSALTSYEGHHHHHH | soluble
17 | MSLDSLYVNDFYKGDRNITKFLKLELEMYDWKLMILHYLGLDHIGHVEGPFSDKVPGKLKEMDKVIKTIYHTMDKWKYYTKPLLVITGDHGMRDSGGHGGSSHAETIVPVVIVSDQCAKSEETFLQIDEGHHHHHH | not soluble
18 | MSLDTFGLIQLAELIYEYCGIDFFKNLSSLESKISERLKELGLSCWEYGGYLRVEPKEWDTLIDLITVNETYFFREENLLEEFQKVILPKYKDRTPNNPLRIWSSACSSGEEPYTLAILSEETGLFETGAVEIIASDIDKKVLEKARRGLYNKKSFSFRTMPKEILDKYFISFGDDYKVKDSIRAMVDFRRVNLLDENKLEKVGEVDIVFCRNVLIYFDTKAINKVINSLYKVLRAGGYLFLGHAETITGMNTGFETIYTPSAFYYRKGERHEGHHHHHH | soluble
19 | MSLDTQSDYVVVGTGSAGAVVASRLSTDPATTVVALEAGPRDKNRFIGVPAAFSKLFRSEIDWDYLTEPQPELDGREIYWPRGKVLGGSSSMNAMMWVRGFASDYDEWAARAGPRWSYADVLGYFRRIENVTAAWHFVSGDDSGVTGPLHISRQRSPRSVTAAWLAAARECGFAAARPNSPRPEGFCETVVTQRRGARFSTADAYLKPAMRRKNLRVLTGATATRVVIDGDRAVGVEYQSDGQTRIVYARREVVLCAGAVNSPQLLMLSGIGDRDHLAEHDIDTVYHAPEVGCNLLDHLVTVLGFDVEKDSLFAAEKPGQLISYLLRRRGMLTSNVGEAYGFVRSRPELKLPDLELIFAPAPFYDEALVPPAGHGVVFGPILVAPQSRGQITLRSADPHAKPVIEPRYLSDLGGVDRAAMMAGLRICARIAQARPLRDLLGSIARPRNSTELDEATLELALATCSHTLYHPMGTCRMGSDEASVVDPQLRVRGVDGLRVADASVMPSTVRGHTHAPSVLIGEKAADLIRSEGHHHHHH | soluble
20 | MSLDYAQRAVQVDPPRRLTHEMDSWARNFVMLRTDVQGRPINRLEGVYVEHFPDDDSYHVTTPRAIGQQAGNPITIGVSKTAIMEQGGQRIVMNGDAHVHRQPDARNETLDVRSQQLILLPDDDVVFTDLPAQVNKGNSRMNGTGMHYNNKTRQLRVSAAADVEIAGTEGRKRQSTETPANSNQNKPEGHHHHHH | soluble
21 | MSLEAAPAGSGPLRRTFLVPEIKSLDQYDFSRAKAAASLAWVLRAAFGGAEHVPPELWEPFYTDQYAQEHVKPPVTRLLLSAELYCRAWRQALPQLEPSPSPSALLALLARRGTVPSLPEHPVREADLKHQPILMGAHLAVIDALMVAFSFEWTKTLPGPLALSSLEHKLLFWVDTTVRRLQEKTEQEAAQRASPAAPLDGASEGHHHHHH | not soluble
